Data published in the supplement of paper PMC6379048.

Columns and labels:
Assay in all cases: EC50 of free RNA motif oligo competing protein binding to immobilised probe
[1] = target: SKIV2L (UniProt Q15477)
How it was run: (§1)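 Kd was calculated as EC50, taken from a four-parameter log-logistic fit, multiplied by a protein-dependent depletion factor. The assay used HEK293-FT lysate (2.5 mg protein/well) pre-incubated for 1 h at 4°C with free RNA oligos (0 nM to 30 μM), then incubated for 30 min at 4°C with the matching oligos bound through a 5′-amino-C6 linker to NHS-Sepharose beads. Bound proteins were measured by label-free LC-MS/MS and normalised to the control.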

[2] = target: ZNFX1 (UniProt Q9P2E3)
How it was run: as §1

[3] = target: T1, AASS (UniProt Q9UDR5)
T1 sequence: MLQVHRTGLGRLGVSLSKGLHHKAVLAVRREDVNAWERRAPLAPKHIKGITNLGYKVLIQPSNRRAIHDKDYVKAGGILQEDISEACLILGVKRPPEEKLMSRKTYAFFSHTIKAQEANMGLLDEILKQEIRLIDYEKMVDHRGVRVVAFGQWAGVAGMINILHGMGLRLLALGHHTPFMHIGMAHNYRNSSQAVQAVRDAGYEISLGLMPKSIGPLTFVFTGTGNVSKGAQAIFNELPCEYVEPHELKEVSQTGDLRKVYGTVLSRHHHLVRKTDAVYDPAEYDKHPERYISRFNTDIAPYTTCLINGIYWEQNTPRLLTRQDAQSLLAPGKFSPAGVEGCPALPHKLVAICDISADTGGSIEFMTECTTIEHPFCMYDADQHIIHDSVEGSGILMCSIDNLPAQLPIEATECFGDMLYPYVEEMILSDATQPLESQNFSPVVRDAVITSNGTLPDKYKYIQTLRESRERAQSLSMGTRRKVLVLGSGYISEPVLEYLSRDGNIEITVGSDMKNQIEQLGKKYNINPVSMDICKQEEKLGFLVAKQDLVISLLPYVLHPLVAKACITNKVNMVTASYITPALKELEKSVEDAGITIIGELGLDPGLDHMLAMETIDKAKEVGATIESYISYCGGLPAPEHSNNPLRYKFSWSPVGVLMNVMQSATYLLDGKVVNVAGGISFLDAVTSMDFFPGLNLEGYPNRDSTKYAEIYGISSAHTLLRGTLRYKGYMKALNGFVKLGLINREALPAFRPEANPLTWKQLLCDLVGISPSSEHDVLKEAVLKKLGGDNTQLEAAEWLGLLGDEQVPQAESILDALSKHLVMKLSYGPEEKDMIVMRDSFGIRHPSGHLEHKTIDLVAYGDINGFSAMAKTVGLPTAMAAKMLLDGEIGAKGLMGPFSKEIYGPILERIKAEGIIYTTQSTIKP
How it was run: as §1

[4] = target: T2, GPALPP1 (UniProt Q8IXQ4)
T2 sequence: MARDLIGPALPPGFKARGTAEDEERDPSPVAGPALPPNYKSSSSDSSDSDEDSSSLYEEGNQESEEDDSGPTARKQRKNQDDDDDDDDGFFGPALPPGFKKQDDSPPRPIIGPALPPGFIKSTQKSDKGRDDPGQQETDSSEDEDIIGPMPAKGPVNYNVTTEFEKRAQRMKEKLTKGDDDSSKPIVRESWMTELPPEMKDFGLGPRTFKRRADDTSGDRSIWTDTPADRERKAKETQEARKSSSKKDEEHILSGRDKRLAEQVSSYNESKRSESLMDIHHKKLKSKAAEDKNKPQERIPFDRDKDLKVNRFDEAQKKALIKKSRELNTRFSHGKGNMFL
How it was run: as §1

[5] = target: T3, HNRNPR (UniProt O43390)
T3 sequence: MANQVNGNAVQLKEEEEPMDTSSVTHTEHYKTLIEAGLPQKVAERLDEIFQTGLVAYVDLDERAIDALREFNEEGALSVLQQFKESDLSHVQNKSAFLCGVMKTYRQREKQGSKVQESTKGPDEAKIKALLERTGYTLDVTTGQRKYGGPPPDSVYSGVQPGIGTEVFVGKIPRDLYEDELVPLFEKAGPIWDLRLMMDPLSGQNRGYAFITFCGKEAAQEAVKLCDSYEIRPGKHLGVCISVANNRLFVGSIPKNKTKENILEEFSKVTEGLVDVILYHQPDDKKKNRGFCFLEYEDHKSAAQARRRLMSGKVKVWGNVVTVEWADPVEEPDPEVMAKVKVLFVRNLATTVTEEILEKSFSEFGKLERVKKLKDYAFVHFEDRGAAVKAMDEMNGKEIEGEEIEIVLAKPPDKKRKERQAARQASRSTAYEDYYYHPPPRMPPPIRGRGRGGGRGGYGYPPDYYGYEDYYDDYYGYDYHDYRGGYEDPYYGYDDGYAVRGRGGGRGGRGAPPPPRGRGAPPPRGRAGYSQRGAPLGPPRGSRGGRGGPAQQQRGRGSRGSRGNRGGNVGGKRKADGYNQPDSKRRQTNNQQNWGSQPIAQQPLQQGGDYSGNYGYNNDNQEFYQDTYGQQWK
How it was run: as §1

[6] = target: T4, ZRANB2 (UniProt O95218)
T4 sequence: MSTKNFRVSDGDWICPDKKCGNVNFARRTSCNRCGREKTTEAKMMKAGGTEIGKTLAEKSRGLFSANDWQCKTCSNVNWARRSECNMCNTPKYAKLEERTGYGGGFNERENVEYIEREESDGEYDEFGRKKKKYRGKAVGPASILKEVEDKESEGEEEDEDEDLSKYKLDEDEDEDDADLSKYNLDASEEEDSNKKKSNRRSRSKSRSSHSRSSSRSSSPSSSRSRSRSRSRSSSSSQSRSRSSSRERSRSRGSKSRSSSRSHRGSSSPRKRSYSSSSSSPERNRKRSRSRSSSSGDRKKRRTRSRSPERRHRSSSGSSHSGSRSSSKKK
How it was run: as §1

[7] = target: MRPL37 (UniProt Q9BZE1)
How it was run: as §1

Chain of ZNFX1 (Q9P2E3 whole entry): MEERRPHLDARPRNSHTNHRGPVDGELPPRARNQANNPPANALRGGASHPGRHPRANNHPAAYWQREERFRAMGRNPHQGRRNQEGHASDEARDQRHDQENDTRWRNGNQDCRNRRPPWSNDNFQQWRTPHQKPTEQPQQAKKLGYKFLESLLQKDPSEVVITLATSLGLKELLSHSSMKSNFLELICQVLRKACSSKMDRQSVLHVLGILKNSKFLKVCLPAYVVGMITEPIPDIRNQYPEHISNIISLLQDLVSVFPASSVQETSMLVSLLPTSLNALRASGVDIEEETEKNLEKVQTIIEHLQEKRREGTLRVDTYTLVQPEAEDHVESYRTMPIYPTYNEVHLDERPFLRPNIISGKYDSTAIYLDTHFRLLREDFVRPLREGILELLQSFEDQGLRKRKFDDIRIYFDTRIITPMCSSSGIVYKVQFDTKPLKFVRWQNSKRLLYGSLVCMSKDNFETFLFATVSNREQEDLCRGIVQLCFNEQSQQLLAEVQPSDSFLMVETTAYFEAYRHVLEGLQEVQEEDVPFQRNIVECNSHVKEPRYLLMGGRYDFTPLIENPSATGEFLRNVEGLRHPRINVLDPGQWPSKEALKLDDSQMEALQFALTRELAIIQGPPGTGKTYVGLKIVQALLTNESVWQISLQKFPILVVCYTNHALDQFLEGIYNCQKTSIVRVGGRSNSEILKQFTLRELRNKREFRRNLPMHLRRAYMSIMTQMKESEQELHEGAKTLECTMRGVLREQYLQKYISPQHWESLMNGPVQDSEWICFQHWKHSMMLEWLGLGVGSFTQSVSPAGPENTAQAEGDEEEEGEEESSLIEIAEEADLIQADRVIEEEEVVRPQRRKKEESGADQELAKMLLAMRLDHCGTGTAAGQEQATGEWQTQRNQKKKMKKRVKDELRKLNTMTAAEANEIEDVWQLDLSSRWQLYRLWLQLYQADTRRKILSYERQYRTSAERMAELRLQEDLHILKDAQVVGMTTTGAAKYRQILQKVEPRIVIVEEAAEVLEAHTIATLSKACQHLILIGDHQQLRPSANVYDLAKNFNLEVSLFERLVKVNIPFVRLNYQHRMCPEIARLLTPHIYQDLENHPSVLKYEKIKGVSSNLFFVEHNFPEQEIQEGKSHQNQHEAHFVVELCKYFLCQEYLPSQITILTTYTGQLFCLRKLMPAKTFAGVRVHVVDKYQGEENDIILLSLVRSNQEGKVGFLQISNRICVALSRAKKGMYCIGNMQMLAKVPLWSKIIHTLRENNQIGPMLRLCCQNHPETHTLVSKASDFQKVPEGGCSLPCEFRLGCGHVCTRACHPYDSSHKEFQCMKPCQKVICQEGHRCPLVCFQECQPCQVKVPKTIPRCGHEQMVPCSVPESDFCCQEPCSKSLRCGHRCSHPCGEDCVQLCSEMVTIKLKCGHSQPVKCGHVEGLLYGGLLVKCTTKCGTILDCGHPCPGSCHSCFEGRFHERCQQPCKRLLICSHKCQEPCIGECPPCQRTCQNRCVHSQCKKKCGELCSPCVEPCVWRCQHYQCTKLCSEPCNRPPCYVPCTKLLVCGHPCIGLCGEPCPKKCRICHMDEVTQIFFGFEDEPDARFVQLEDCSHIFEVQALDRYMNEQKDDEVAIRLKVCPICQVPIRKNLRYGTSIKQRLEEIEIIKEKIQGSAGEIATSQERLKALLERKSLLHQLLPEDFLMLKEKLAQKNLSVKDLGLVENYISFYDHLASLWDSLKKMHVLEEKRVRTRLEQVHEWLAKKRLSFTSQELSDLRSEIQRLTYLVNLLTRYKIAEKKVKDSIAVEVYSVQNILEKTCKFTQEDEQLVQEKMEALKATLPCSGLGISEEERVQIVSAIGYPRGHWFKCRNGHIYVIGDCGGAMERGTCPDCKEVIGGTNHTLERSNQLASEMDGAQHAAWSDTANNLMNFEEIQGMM
Chain of SKIV2L (Q15477 whole entry): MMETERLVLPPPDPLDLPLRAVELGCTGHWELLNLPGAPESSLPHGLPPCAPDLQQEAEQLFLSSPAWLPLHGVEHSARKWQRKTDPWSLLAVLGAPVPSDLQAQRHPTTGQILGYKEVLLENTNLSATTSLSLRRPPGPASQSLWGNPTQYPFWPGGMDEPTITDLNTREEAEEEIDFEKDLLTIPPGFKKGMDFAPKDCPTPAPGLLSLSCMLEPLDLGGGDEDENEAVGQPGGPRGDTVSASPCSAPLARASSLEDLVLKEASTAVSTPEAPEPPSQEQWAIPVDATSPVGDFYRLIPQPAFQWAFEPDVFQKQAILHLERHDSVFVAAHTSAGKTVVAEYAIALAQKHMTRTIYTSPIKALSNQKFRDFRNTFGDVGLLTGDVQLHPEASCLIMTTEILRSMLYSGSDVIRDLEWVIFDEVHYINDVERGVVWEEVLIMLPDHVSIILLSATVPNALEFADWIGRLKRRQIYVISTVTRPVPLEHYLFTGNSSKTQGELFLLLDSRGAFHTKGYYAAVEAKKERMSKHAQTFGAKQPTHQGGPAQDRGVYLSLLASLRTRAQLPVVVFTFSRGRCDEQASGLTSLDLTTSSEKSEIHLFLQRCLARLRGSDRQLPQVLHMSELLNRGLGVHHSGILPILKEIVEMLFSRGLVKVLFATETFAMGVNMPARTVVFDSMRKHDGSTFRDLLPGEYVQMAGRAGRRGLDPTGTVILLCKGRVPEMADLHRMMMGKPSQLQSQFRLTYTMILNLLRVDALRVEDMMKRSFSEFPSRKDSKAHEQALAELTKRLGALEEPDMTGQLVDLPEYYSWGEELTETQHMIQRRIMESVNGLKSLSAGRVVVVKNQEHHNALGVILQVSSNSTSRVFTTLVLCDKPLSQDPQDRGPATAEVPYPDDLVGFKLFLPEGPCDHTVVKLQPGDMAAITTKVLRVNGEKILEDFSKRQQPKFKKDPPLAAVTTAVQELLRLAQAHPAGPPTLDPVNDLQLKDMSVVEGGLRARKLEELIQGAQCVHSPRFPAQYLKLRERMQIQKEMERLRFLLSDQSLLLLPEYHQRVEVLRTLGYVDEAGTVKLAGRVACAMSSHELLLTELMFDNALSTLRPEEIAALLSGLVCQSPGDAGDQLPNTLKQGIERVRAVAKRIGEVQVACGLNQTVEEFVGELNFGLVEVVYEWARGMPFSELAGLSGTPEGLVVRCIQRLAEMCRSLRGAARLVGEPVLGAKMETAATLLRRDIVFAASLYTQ

UAUUUAU
EC50 [1]: 1950 nM
EC50 [2]: 436 nM

AAUAAA
EC50 [3]: 9.78 µM
EC50 [4]: 33.8 nM
EC50 [5]: 2840 nM
EC50 [6]: 1900 nM

CUGUCCU
EC50 [7]: 245 nM
